From the supplement of paper PMC9233669
Fewer inactive variants are shown than the library holds.

Experiments:
biotinyl-Val-oxazolone = assay: self-aminoacylation, catalytic enhancement (BVO) (fold over background); higher = more active; k-Seq, kA / k0A0; sequences stand for … in GGGAAUGGAUCCACAUCUACGAAUUC…UUCACUGCAGACUUGACGAAGCUG
Summary of the method: (§1)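 Mutagenized RNA pools with a 21-nt variable region (0.43 μM) reacted with each biotinyl-aminoacyl-oxazolone at 2–1250 μM. Reactions ran in 50 μL HEPES/NaCl/KCl/MgCl2/CaCl2 buffer with 5% acetonitrile, pH 6.9–7.0, for 90 minutes at room temperature. Streptavidin-captured RNA was quantified by triplicate qPCR and Illumina sequencing, and per-sequence fraction reacted was fit to a pseudo-first-order model with 1000 bootstraps. Catalytic enhancement is median kA divided by the uncatalyzed rate, the low-activity peak of a bimodal Gaussian fit.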

biotinyl-Leu-oxazolone = assay: self-aminoacylation, catalytic enhancement (BLO) (fold over background); higher = more active; k-Seq, kA / k0A0; sequences stand for … in GGGAAUGGAUCCACAUCUACGAAUUC…UUCACUGCAGACUUGACGAAGCUG
Summary of the method: as §1

biotinyl-Phe-oxazolone = assay: self-aminoacylation, catalytic enhancement (BFO) (fold over background); higher = more active; k-Seq, kA / k0A0; sequences stand for … in GGGAAUGGAUCCACAUCUACGAAUUC…UUCACUGCAGACUUGACGAAGCUG
Summary of the method: as §1

biotinyl-Trp-oxazolone = assay: self-aminoacylation, catalytic enhancement (BWO) (fold over background); higher = more active; k-Seq, kA / k0A0; sequences stand for … in GGGAAUGGAUCCACAUCUACGAAUUC…UUCACUGCAGACUUGACGAAGCUG
Summary of the method: as §1

biotinyl-Met-oxazolone = assay: self-aminoacylation, catalytic enhancement (BMO) (fold over background); higher = more active; k-Seq, kA / k0A0; sequences stand for … in GGGAAUGGAUCCACAUCUACGAAUUC…UUCACUGCAGACUUGACGAAGCUG
Summary of the method: as §1

**Q.** Which results are given for “AAGUUUGCCAAUAGUCGCAGG [Fam3.1 aminoacylation ribozyme variant]”?
**A.** self-aminoacylation (biotinyl-Val-oxazolone): 2.08; self-aminoacylation (biotinyl-Leu-oxazolone): 2.33; self-aminoacylation (biotinyl-Phe-oxazolone): 15.8; self-aminoacylation (biotinyl-Trp-oxazolone): 3.26; self-aminoacylation (biotinyl-Met-oxazolone): 2.73

**Q.** What does the source list for “AGUACCCUGGUCAUCGUGUGA [Fam2.1 aminoacylation ribozyme variant]”?
**A.** self-aminoacylation (biotinyl-Val-oxazolone): 2.06; self-aminoacylation (biotinyl-Leu-oxazolone): 3.43; self-aminoacylation (biotinyl-Phe-oxazolone): 16.3; self-aminoacylation (biotinyl-Trp-oxazolone): 3.88; self-aminoacylation (biotinyl-Met-oxazolone): 3.07

**Q.** How did the self-aminoacylation (biotinyl-Val-oxazolone) turn out when “AUUACACUGGUCAUAGAGUGA [Fam2.1 aminoacylation ribozyme variant]” was run?
**A.** The self-aminoacylation was 2.13.

**Q.** And the self-aminoacylation (biotinyl-Leu-oxazolone)?
**A.** Its self-aminoacylation is 3.62.

**Q.** What about the self-aminoacylation (biotinyl-Phe-oxazolone) of the same sequence?
**A.** The self-aminoacylation was 8.72.

**Q.** And the self-aminoacylation (biotinyl-Trp-oxazolone)?
**A.** Its self-aminoacylation is 3.92.

**Q.** What about the self-aminoacylation (biotinyl-Met-oxazolone) of the same sequence?
**A.** The self-aminoacylation was 3.15.

**Q.** How did the self-aminoacylation (biotinyl-Val-oxazolone) turn out when “AUUACCCUGAUCAGCGAGUGA [Fam2.1 aminoacylation ribozyme variant]” was run?
**A.** Its self-aminoacylation is 2.3.

**Q.** And the self-aminoacylation (biotinyl-Leu-oxazolone)?
**A.** The self-aminoacylation was 2.74.

**Q.** And the self-aminoacylation (biotinyl-Phe-oxazolone)?
**A.** The self-aminoacylation was 3.1.

**Q.** What about the self-aminoacylation (biotinyl-Trp-oxazolone) of the same sequence?
**A.** Its self-aminoacylation is 4.93.

**Q.** What about the self-aminoacylation (biotinyl-Met-oxazolone) of the same sequence?
**A.** Its self-aminoacylation is 2.71.

**Q.** What does the source list for “AUUACCCUGGCCUUCGAGUGA [Fam2.1 aminoacylation ribozyme variant]”?
**A.** self-aminoacylation (biotinyl-Val-oxazolone): 2.53; self-aminoacylation (biotinyl-Leu-oxazolone): 4.36; self-aminoacylation (biotinyl-Phe-oxazolone): 17.9; self-aminoacylation (biotinyl-Trp-oxazolone): 5.17; self-aminoacylation (biotinyl-Met-oxazolone): 3.21

**Q.** How did the self-aminoacylation (biotinyl-Val-oxazolone) turn out when “AUUACCCUGGUCACCGAGUAA [Fam2.1 aminoacylation ribozyme variant]” was run?
**A.** Its self-aminoacylation is 2.34.

**Q.** What about the self-aminoacylation (biotinyl-Leu-oxazolone) of the same sequence?
**A.** The self-aminoacylation was 2.46.

**Q.** What about the self-aminoacylation (biotinyl-Phe-oxazolone) of the same sequence?
**A.** Its self-aminoacylation is 10.1.

**Q.** What about the self-aminoacylation (biotinyl-Met-oxazolone) of the same sequence?
**A.** The self-aminoacylation was 2.62.

**Q.** Which results are given for “AUUACCCUGGUCAGCGAGCGA [Fam2.1 aminoacylation ribozyme variant]”?
**A.** self-aminoacylation (biotinyl-Val-oxazolone): 2.08; self-aminoacylation (biotinyl-Leu-oxazolone): 2.33; self-aminoacylation (biotinyl-Met-oxazolone): 2.34

**Q.** Which results are given for “AUUACCCUGGUCCUCGAGGGA [Fam2.1 aminoacylation ribozyme variant]”?
**A.** self-aminoacylation (biotinyl-Val-oxazolone): 2.15; self-aminoacylation (biotinyl-Trp-oxazolone): 2.37

**Q.** With “AUUACCUUGGUCCUCGAGUGA [Fam2.1 aminoacylation ribozyme variant]” as the sequence, how does the self-aminoacylation (biotinyl-Val-oxazolone) read?
**A.** The self-aminoacylation was 2.11.

**Q.** And the self-aminoacylation (biotinyl-Leu-oxazolone)?
**A.** The self-aminoacylation was 3.95.

**Q.** And the self-aminoacylation (biotinyl-Phe-oxazolone)?
**A.** The self-aminoacylation was 17.8.

**Q.** And the self-aminoacylation (biotinyl-Trp-oxazolone)?
**A.** Its self-aminoacylation is 4.39.

**Q.** And the self-aminoacylation (biotinyl-Met-oxazolone)?
**A.** Its self-aminoacylation is 3.05.

**Q.** With “AUUCACCUAGGUCAUCGCGAG [Fam2.2 aminoacylation ribozyme variant]” as the sequence, how does the self-aminoacylation (biotinyl-Val-oxazolone) read?
**A.** Its self-aminoacylation is 2.31.

**Q.** And the self-aminoacylation (biotinyl-Phe-oxazolone)?
**A.** Its self-aminoacylation is 4.46.

**Q.** With “AUUCACCUAGUUCAUAGGGUG [Fam2.2 aminoacylation ribozyme variant]” as the sequence, how does the self-aminoacylation (biotinyl-Leu-oxazolone) read?
**A.** Its self-aminoacylation is 3.8.

**Q.** And the self-aminoacylation (biotinyl-Phe-oxazolone)?
**A.** Its self-aminoacylation is 15.4.

**Q.** What about the self-aminoacylation (biotinyl-Trp-oxazolone) of the same sequence?
**A.** Its self-aminoacylation is 3.14.

**Q.** What about the self-aminoacylation (biotinyl-Met-oxazolone) of the same sequence?
**A.** Its self-aminoacylation is 3.63.

**Q.** Which self-aminoacylation (biotinyl-Val-oxazolone) does the source give for “AUUCACCUCGGUCAUCGGGUC [Fam2.2 aminoacylation ribozyme variant]” here?
**A.** The self-aminoacylation was 2.01.

**Q.** And the self-aminoacylation (biotinyl-Leu-oxazolone)?
**A.** Its self-aminoacylation is 2.04.

**Q.** What about the self-aminoacylation (biotinyl-Phe-oxazolone) of the same sequence?
**A.** The self-aminoacylation was 9.78.

**Q.** How did the self-aminoacylation (biotinyl-Val-oxazolone) turn out when “AUUCACCUUGGUCAUCGGGGG [Fam2.2 aminoacylation ribozyme variant]” was run?
**A.** The self-aminoacylation was 2.04.

**Q.** And the self-aminoacylation (biotinyl-Leu-oxazolone)?
**A.** Its self-aminoacylation is 2.84.

**Q.** What about the self-aminoacylation (biotinyl-Phe-oxazolone) of the same sequence?
**A.** The self-aminoacylation was 13.

**Q.** And the self-aminoacylation (biotinyl-Trp-oxazolone)?
**A.** Its self-aminoacylation is 2.28.

**Q.** What about the self-aminoacylation (biotinyl-Met-oxazolone) of the same sequence?
**A.** The self-aminoacylation was 2.04.

**Q.** What does the source list for “AUUCACGUAGGUCAUCGAGUG [Fam2.2 aminoacylation ribozyme variant]”?
**A.** self-aminoacylation (biotinyl-Leu-oxazolone): 2.67; self-aminoacylation (biotinyl-Phe-oxazolone): 2.42; self-aminoacylation (biotinyl-Trp-oxazolone): 2.73; self-aminoacylation (biotinyl-Met-oxazolone): 2.92

**Q.** Which self-aminoacylation (biotinyl-Val-oxazolone) does the source give for “AUUCACGUAGGUCAUCGGGAG [Fam2.2 aminoacylation ribozyme variant]” here?
**A.** Its self-aminoacylation is 2.13.

**Q.** And the self-aminoacylation (biotinyl-Met-oxazolone)?
**A.** Its self-aminoacylation is 2.07.

**Q.** With “AUUGCCCUGGUCAUCGUGUGA [Fam2.1 aminoacylation ribozyme variant]” as the sequence, how does the self-aminoacylation (biotinyl-Leu-oxazolone) read?
**A.** The self-aminoacylation was 3.19.

**Q.** What about the self-aminoacylation (biotinyl-Phe-oxazolone) of the same sequence?
**A.** Its self-aminoacylation is 24.

**Q.** What about the self-aminoacylation (biotinyl-Trp-oxazolone) of the same sequence?
**A.** Its self-aminoacylation is 3.2.

**Q.** What about the self-aminoacylation (biotinyl-Met-oxazolone) of the same sequence?
**A.** Its self-aminoacylation is 2.93.

**Q.** “CCACACCUCAAGCAAUCGGUA [Fam1B.1 aminoacylation ribozyme variant]” was tested. Which self-aminoacylation (biotinyl-Val-oxazolone) did it give?
**A.** The self-aminoacylation was 2.1.

**Q.** With “CCACACUUCAAGCAGUCGGCC [Fam1B.1 aminoacylation ribozyme variant]” as the sequence, how does the self-aminoacylation (biotinyl-Val-oxazolone) read?
**A.** The self-aminoacylation was 2.84.

**Q.** What about the self-aminoacylation (biotinyl-Leu-oxazolone) of the same sequence?
**A.** The self-aminoacylation was 2.47.

**Q.** And the self-aminoacylation (biotinyl-Phe-oxazolone)?
**A.** The self-aminoacylation was 4.85.

**Q.** And the self-aminoacylation (biotinyl-Met-oxazolone)?
**A.** Its self-aminoacylation is 2.22.

**Q.** With “CCACACUUCAAGCAUUCGGUA [Fam1B.1 aminoacylation ribozyme variant]” as the sequence, how does the self-aminoacylation (biotinyl-Val-oxazolone) read?
**A.** Its self-aminoacylation is 2.44.

**Q.** What does the source list for “CCACACUUCAGGCGAUCGGUC [Fam1B.1 aminoacylation ribozyme variant]”?
**A.** self-aminoacylation (biotinyl-Val-oxazolone): 2.42; self-aminoacylation (biotinyl-Phe-oxazolone): 4.75; self-aminoacylation (biotinyl-Met-oxazolone): 2.1

**Q.** Which self-aminoacylation (biotinyl-Val-oxazolone) does the source give for “CCACACUUCUAGCAAUCGGCC [Fam1B.1 aminoacylation ribozyme variant]” here?
**A.** The self-aminoacylation was 2.2.

**Q.** What about the self-aminoacylation (biotinyl-Leu-oxazolone) of the same sequence?
**A.** Its self-aminoacylation is 2.06.

**Q.** And the self-aminoacylation (biotinyl-Trp-oxazolone)?
**A.** The self-aminoacylation was 2.72.

**Q.** What about the self-aminoacylation (biotinyl-Met-oxazolone) of the same sequence?
**A.** The self-aminoacylation was 2.54.

**Q.** What does the source list for “CCAUACUUCAAGCAAUCGGCC [Fam1B.1 aminoacylation ribozyme variant]”?
**A.** self-aminoacylation (biotinyl-Leu-oxazolone): 2.33; self-aminoacylation (biotinyl-Phe-oxazolone): 2.88; self-aminoacylation (biotinyl-Trp-oxazolone): 3.74; self-aminoacylation (biotinyl-Met-oxazolone): 2.36

**Q.** Which self-aminoacylation (biotinyl-Val-oxazolone) does the source give for “CCCCACGUCAAGCAAUCGGUC [Fam1B.1 aminoacylation ribozyme variant]” here?
**A.** The self-aminoacylation was 2.4.

**Q.** What about the self-aminoacylation (biotinyl-Phe-oxazolone) of the same sequence?
**A.** The self-aminoacylation was 5.6.

**Q.** And the self-aminoacylation (biotinyl-Trp-oxazolone)?
**A.** The self-aminoacylation was 2.49.

**Q.** “CCCCACUGCAAGCAAUCGGUC [Fam1B.1 aminoacylation ribozyme variant]” was tested. Which self-aminoacylation (biotinyl-Val-oxazolone) did it give?
**A.** Its self-aminoacylation is 2.35.

**Q.** And the self-aminoacylation (biotinyl-Phe-oxazolone)?
**A.** Its self-aminoacylation is 4.31.

**Q.** What about the self-aminoacylation (biotinyl-Trp-oxazolone) of the same sequence?
**A.** Its self-aminoacylation is 3.43.

**Q.** What does the source list for “GAGCUUGCUAAUAGUCGCAAG [Fam3.1 aminoacylation ribozyme variant]”?
**A.** self-aminoacylation (biotinyl-Val-oxazolone): 2.02; self-aminoacylation (biotinyl-Phe-oxazolone): 4.81; self-aminoacylation (biotinyl-Trp-oxazolone): 2.4; self-aminoacylation (biotinyl-Met-oxazolone): 2.03

**Q.** Which results are given for “GAGUUUGCUAAAAGUCGCAAG [Fam3.1 aminoacylation ribozyme variant]”?
**A.** self-aminoacylation (biotinyl-Val-oxazolone): 2.1; self-aminoacylation (biotinyl-Phe-oxazolone): 8.71; self-aminoacylation (biotinyl-Trp-oxazolone): 5.66
